Data reported in publication PMC5435919 (Nucleic Acids Research, 2017).

T1: DmGen (1-518)-His (Drosophila melanogaster, UniProt Q9VRJ0 1-518)
T1 sequence: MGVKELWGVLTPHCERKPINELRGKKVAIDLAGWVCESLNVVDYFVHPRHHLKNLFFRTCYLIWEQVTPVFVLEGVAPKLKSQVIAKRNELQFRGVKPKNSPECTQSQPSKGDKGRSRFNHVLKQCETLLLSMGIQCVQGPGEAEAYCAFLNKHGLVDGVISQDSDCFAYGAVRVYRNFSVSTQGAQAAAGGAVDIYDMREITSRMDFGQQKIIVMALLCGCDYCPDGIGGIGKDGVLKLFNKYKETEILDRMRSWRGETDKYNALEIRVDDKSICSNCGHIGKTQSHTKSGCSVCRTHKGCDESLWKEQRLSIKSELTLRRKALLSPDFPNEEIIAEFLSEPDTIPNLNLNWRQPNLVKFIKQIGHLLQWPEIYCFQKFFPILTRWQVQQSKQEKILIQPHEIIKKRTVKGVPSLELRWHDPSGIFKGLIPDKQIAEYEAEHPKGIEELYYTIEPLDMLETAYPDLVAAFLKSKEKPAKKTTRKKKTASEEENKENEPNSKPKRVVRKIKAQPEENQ

B1: truncated DmGen (1-518 aa) with C-terminal hexahistidine tag (enzyme, Drosophila, UniProt Q9VRJ0 1-518, looked up)
chain: T1 sequence
B2: linear dsDNA (oligos 888/888rc) (dsDNA)
DNA 1: GACGCTGCCGAATTCTGGCGTTAGGAGATACCGATAAGCTTCGGCTTAA
DNA 2: TTAAGCCGAAGCTTATCGGTATCTCCTAACGCCAGAATTCGGCAGCGTC

Assays:
SEC-MALS = target: the molecule itself; test: SEC-MALS
atomic force microscopy = target: the molecule itself; test: atomic force microscopy
DmGen (1-518)-His = target: T1, DmGen (1-518)-His; test: EMSA

Binder | stoichiometry N (SEC-MALS) | Kd (atomic force microscopy) [nM] | binding result (DmGen (1-518)-His)
B1 | 2 | ~100 | 
B2 |  |  | no binding
